In PMC4270787 (PLoS ONE, 2014):

Key:
Assay in all cases: radioligand binding
[1] = target: acetylcholine-binding protein from Aplysia californica (A. californica)
[2] = target: T1, acetylcholine-binding protein from L. stagnalis (L. stagnalis, UniProt P58154 20-229); settings: both partners purified
T1 construct: also called L. stagnalis AChBP

[3] = target: T2, human neuronal α7 nicotinic acetylcholine receptor (human, UniProt P36544 23-502); settings: one partner purified
T2 construct: also called human α7 nAChR; α7 nAChR

[4] = target: T3, T. californica muscle-type nicotinic acetylcholine receptor (T. californica, UniProt P02710 25-461; P02712 25-493; P02714 18-506; P02718 22-522); settings: one partner purified
T3 construct: also called T. californica nAChR; Torpedo nAChR

| Molecule | IC50 [1] [µM] | IC50 [2] [µM] | IC50 [3] [µM] | IC50 [4] [nM] |
| --- | --- | --- | --- | --- |
| PLA2 vurtoxin from V. ursinii venom (from UniProt F8QN54 17-138) (enzyme) | > 30 | – | – | – |
| PLA2 CM-II from N. kaouthia venom (from UniProt P00596 28-146) (enzyme) | > 100 | – | – | – |
| PLA2 CM-II from N. kaouthia venom (enzyme) NLYQFKNMIQCTVPNRSWWDFADYGCYCGRGGSGTPVDDLDRCCQVHDNCYNEAEKISRCWPYFKTYSYECSQGTLTCKGDNDACAAAVCDCDRLAAICFAGAPYNNNNYNIDLKARCQ | – | 1 ± 0.03 | 3.2 ± 0.3 | 1200 ± 100 |
| PLA2 Vur-PL2 from V. ursinii venom (enzyme) NLYQFGKMIRYKTGKSALLSYSDYGCYCGWGGQGKPKDATDRCCFVHDCCYGRVNGCDPKLTIYSYSFENGDIVCGGDDSCKRAVCECDRVAAICFGENLNTYDKKYKNYPSSQCTETEQC | – | > 30 | 29 ± 2 | > 100000 |
| PLA2 vurtoxin from V. ursinii venom (enzyme) SLLEFGMMILEETGKNPLTSYSFYGCYCGVGGKGTPKDATDRCCFVHDCCYGNLPDCNPKIDRYKYHRKNGAIVCGKGTSCENRICECDRAAAICFRKNLKTYNHIYKYYPDFLCKKESEKC | – | > 30 | 14 ± 5 | 260 ± 20 |
